# Source: patent US10941182 (Amgen, dated 2021)
# Starred links: 1 amine or outer side, 2 acyl side, 3 side chain; linkers in the order of their positions; H or OH if unused. Non-standard residues stand in square brackets, D forms with d. Primed or numbered codes have the meaning given here. *: point of attachment. NPipG = 2-(piperidin-4-ylamino)acetic acid, O=C(CN(C1CCN([*:3])CC1)[*:1])[*:2]; AC4Abu = α-carboxy-4-aminobutyric acid, O=C(C(CCN[*:1])C(=O)[*:3])[*:2]; Oic = O=C(O)[C@@H]1C[C@@H]2CCCC[C@@H]2N1; Phe(4-Cl) = N[C@@H](Cc1ccc(Cl)cc1)C(=O)O; γGlu = O=C(O)[C@H](CCC(=O)[*:2])N[*:1]; d(β3hF) = N[C@@H](CC(=O)O)Cc1ccccc1; NMeR = CN[C@@H](CCCNC(=N)N)C(=O)O; Palmitoyl = CCCCCCCCCCCCCCCC(=O)*; Tic = O=C(O)[C@@H]1Cc2ccccc2CN1; dTic = O=C(O)[C@H]1Cc2ccccc2CN1; β3hF = N[C@H](CC(=O)O)Cc1ccccc1; Cha = N[C@@H](CC1CCCCC1)C(=O)O; Aic = NC1(C(=O)O)Cc2ccccc2C1; β3hP = O=C(O)C[C@@H]1CCCN1; Pip = O=C(O)[C@@H]1CCCCN1; Nle = CCCC[C@H](N)C(=O)O; Orn = NCCC[C@H](N)C(=O)O; Pip′ = not defined here; AEEA = NCCOCCOCC(=O)O; Aib = CC(C)(N)C(=O)O; Inp = O=C(O)C1CCNCC1; Nip = nipecotic acid
# T1: rat APJ receptor (rat, UniProt Q9JHG3 1-377)
# T1 sequence (looked up): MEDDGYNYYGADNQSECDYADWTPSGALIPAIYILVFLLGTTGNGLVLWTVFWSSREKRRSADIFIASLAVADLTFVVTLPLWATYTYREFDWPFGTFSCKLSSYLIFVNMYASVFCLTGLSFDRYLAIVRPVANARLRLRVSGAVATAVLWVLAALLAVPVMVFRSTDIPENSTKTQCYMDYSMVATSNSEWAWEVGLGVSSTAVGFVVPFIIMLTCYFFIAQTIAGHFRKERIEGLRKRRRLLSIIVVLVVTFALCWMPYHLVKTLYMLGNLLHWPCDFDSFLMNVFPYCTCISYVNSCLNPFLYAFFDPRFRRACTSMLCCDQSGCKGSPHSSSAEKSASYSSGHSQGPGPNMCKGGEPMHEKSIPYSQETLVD
# T2: human APJ receptor (human, UniProt P35414 1-380)
# T2 sequence (looked up): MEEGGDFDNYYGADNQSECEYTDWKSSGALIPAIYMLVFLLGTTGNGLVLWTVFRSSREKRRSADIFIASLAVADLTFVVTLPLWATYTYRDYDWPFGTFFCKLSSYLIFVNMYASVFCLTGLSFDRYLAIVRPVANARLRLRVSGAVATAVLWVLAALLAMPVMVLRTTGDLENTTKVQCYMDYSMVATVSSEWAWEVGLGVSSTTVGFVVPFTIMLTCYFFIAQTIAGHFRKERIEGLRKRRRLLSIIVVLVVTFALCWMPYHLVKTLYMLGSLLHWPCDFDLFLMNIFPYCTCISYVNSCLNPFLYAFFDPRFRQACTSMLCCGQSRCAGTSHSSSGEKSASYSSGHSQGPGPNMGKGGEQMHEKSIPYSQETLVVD
# B1: SEQ ID NO: 617 (peptide)
# peptide: Palmitoyl-[γGlu][AEEA][AEEA][dQ]RP[NMeR][Cha]S[dH]KG[Oic][Nle][β3hP][d(β3hF)]-OH
# SMILES: CCCCCCCCCCCCCCCC(=O)N[C@@H](CCC(=O)NCCOCCOCC(=O)NCCOCCOCC(=O)N[C@H](CCC(N)=O)C(=O)N[C@@H](CCCNC(=N)N)C(=O)N1CCC[C@H]1C(=O)N(C)[C@@H](CCCNC(=N)N)C(=O)N[C@@H](CC1CCCCC1)C(=O)N[C@@H](CO)C(=O)N[C@H](Cc1c[nH]cn1)C(=O)N[C@@H](CCCCN)C(=O)NCC(=O)N1[C@H](C(=O)N[C@@H](CCCC)C(=O)N2CCC[C@H]2CC(=O)N[C@@H](CC(=O)O)Cc2ccccc2)C[C@@H]2CCCC[C@@H]21)C(=O)O
# B2: SEQ ID NO: 579 (peptide)
# peptide: Palmitoyl-[AC4Abu][AEEA][AEEA][dQ]RP[NMeR][Cha]SHKG[Pip][Nle][β3hF]-OH
# SMILES: CCCCCCCCCCCCCCCC(=O)NCCC(C(=O)O)C(=O)NCCOCCOCC(=O)NCCOCCOCC(=O)N[C@H](CCC(N)=O)C(=O)N[C@@H](CCCNC(=N)N)C(=O)N1CCC[C@H]1C(=O)N(C)[C@@H](CCCNC(=N)N)C(=O)N[C@@H](CC1CCCCC1)C(=O)N[C@@H](CO)C(=O)N[C@@H](Cc1c[nH]cn1)C(=O)N[C@@H](CCCCN)C(=O)NCC(=O)N1CCCC[C@H]1C(=O)N[C@@H](CCCC)C(=O)N[C@H](CC(=O)O)Cc1ccccc1
# B3: SEQ ID NO: 581 (peptide)
# peptide: Palmitoyl-[AC4Abu][AEEA][AEEA][dQ]RP[NMeR][Cha]SHKG[Pip][Aib][Phe(4-Cl)]-OH
# SMILES: CCCCCCCCCCCCCCCC(=O)NCCC(C(=O)O)C(=O)NCCOCCOCC(=O)NCCOCCOCC(=O)N[C@H](CCC(N)=O)C(=O)N[C@@H](CCCNC(=N)N)C(=O)N1CCC[C@H]1C(=O)N(C)[C@@H](CCCNC(=N)N)C(=O)N[C@@H](CC1CCCCC1)C(=O)N[C@@H](CO)C(=O)N[C@@H](Cc1c[nH]cn1)C(=O)N[C@@H](CCCCN)C(=O)NCC(=O)N1CCCC[C@H]1C(=O)NC(C)(C)C(=O)N[C@@H](Cc1ccc(Cl)cc1)C(=O)O
# B4: SEQ ID NO: 589 (peptide)
# peptide: Palmitoyl-[AC4Abu][AEEA][AEEA]QRP[NMeR][Cha]SHKG[Pip][Nle][Inp][Phe(4-Cl)]-OH
# SMILES: CCCCCCCCCCCCCCCC(=O)NCCC(C(=O)O)C(=O)NCCOCCOCC(=O)NCCOCCOCC(=O)N[C@@H](CCC(N)=O)C(=O)N[C@@H](CCCNC(=N)N)C(=O)N1CCC[C@H]1C(=O)N(C)[C@@H](CCCNC(=N)N)C(=O)N[C@@H](CC1CCCCC1)C(=O)N[C@@H](CO)C(=O)N[C@@H](Cc1c[nH]cn1)C(=O)N[C@@H](CCCCN)C(=O)NCC(=O)N1CCCC[C@H]1C(=O)N[C@@H](CCCC)C(=O)N1CCC(C(=O)N[C@@H](Cc2ccc(Cl)cc2)C(=O)O)CC1
# B5: SEQ ID NO: 590 (peptide)
# peptide: Palmitoyl-[AC4Abu][AEEA][AEEA][dQ]RP[NMeR][Cha]SHKG[Pip][Nle]P[Aic]-OH
# SMILES: CCCCCCCCCCCCCCCC(=O)NCCC(C(=O)O)C(=O)NCCOCCOCC(=O)NCCOCCOCC(=O)N[C@H](CCC(N)=O)C(=O)N[C@@H](CCCNC(=N)N)C(=O)N1CCC[C@H]1C(=O)N(C)[C@@H](CCCNC(=N)N)C(=O)N[C@@H](CC1CCCCC1)C(=O)N[C@@H](CO)C(=O)N[C@@H](Cc1c[nH]cn1)C(=O)N[C@@H](CCCCN)C(=O)NCC(=O)N1CCCC[C@H]1C(=O)N[C@@H](CCCC)C(=O)N1CCC[C@H]1C(=O)NC1(C(=O)O)Cc2ccccc2C1
# B6: SEQ ID NO: 597 (peptide)
# peptide: Palmitoyl-[AC4Abu][AEEA][AEEA][dQ]RP[NMeR][Cha]SHKG[Pip][Nle][Aic]-OH
# SMILES: CCCCCCCCCCCCCCCC(=O)NCCC(C(=O)O)C(=O)NCCOCCOCC(=O)NCCOCCOCC(=O)N[C@H](CCC(N)=O)C(=O)N[C@@H](CCCNC(=N)N)C(=O)N1CCC[C@H]1C(=O)N(C)[C@@H](CCCNC(=N)N)C(=O)N[C@@H](CC1CCCCC1)C(=O)N[C@@H](CO)C(=O)N[C@@H](Cc1c[nH]cn1)C(=O)N[C@@H](CCCCN)C(=O)NCC(=O)N1CCCC[C@H]1C(=O)N[C@@H](CCCC)C(=O)NC1(C(=O)O)Cc2ccccc2C1
# B7: SEQ ID NO: 598 (peptide)
# peptide: Palmitoyl-[AC4Abu][AEEA][AEEA][dQ]RP[NMeR][Cha]SHKG[Pip][Nle]P[Tic]-OH
# SMILES: CCCCCCCCCCCCCCCC(=O)NCCC(C(=O)O)C(=O)NCCOCCOCC(=O)NCCOCCOCC(=O)N[C@H](CCC(N)=O)C(=O)N[C@@H](CCCNC(=N)N)C(=O)N1CCC[C@H]1C(=O)N(C)[C@@H](CCCNC(=N)N)C(=O)N[C@@H](CC1CCCCC1)C(=O)N[C@@H](CO)C(=O)N[C@@H](Cc1c[nH]cn1)C(=O)N[C@@H](CCCCN)C(=O)NCC(=O)N1CCCC[C@H]1C(=O)N[C@@H](CCCC)C(=O)N1CCC[C@H]1C(=O)N1Cc2ccccc2C[C@H]1C(=O)O
# B8: SEQ ID NO: 599 (peptide)
# peptide: Palmitoyl-[AC4Abu][AEEA][AEEA][dQ]RP[NMeR][Cha]SHKG[Pip][Nle]P[dTic]-OH
# SMILES: CCCCCCCCCCCCCCCC(=O)NCCC(C(=O)O)C(=O)NCCOCCOCC(=O)NCCOCCOCC(=O)N[C@H](CCC(N)=O)C(=O)N[C@@H](CCCNC(=N)N)C(=O)N1CCC[C@H]1C(=O)N(C)[C@@H](CCCNC(=N)N)C(=O)N[C@@H](CC1CCCCC1)C(=O)N[C@@H](CO)C(=O)N[C@@H](Cc1c[nH]cn1)C(=O)N[C@@H](CCCCN)C(=O)NCC(=O)N1CCCC[C@H]1C(=O)N[C@@H](CCCC)C(=O)N1CCC[C@H]1C(=O)N1Cc2ccccc2C[C@@H]1C(=O)O
# B9: SEQ ID NO: 618 (peptide)
# peptide: Palmitoyl-[γGlu][AEEA][AEEA][dQ]RP[NMeR][Cha]SH[Orn]G[Oic][Nle][β3hP][d(β3hF)]-OH
# SMILES: CCCCCCCCCCCCCCCC(=O)N[C@@H](CCC(=O)NCCOCCOCC(=O)NCCOCCOCC(=O)N[C@H](CCC(N)=O)C(=O)N[C@@H](CCCNC(=N)N)C(=O)N1CCC[C@H]1C(=O)N(C)[C@@H](CCCNC(=N)N)C(=O)N[C@@H](CC1CCCCC1)C(=O)N[C@@H](CO)C(=O)N[C@@H](Cc1c[nH]cn1)C(=O)N[C@@H](CCCN)C(=O)NCC(=O)N1[C@H](C(=O)N[C@@H](CCCC)C(=O)N2CCC[C@H]2CC(=O)N[C@@H](CC(=O)O)Cc2ccccc2)C[C@@H]2CCCC[C@@H]21)C(=O)O
# Legend:
# rat APJ receptor = target: T1, rat APJ receptor; assay: cell-based or functional assay
# human APJ receptor = target: T2, human APJ receptor; assay: cell-based or functional assay
Binder,EC50 Rat APJ Receptor (rat APJ receptor) [nM],EC50 Human APJ Receptor (human APJ receptor) [nM]
B1,25.8,8.68
Palmitoyl-[AC4Abu][AEEA][AEEA][dQ]RP[NMeR][Cha]SHKG[Pip′][Nle]P[d(β3hF)]-OH [SEQ ID NO: 568],4.55,2.97
Palmitoyl-[AC4Abu][AEEA][AEEA][dQ]RP[NMeR][Cha]SHKG[Pip′][Nle][d(β3hF)]-OH [SEQ ID NO: 574],2.83,0.652
B2,2.5,0.831
B3,5.85,1.4
Palmitoyl-[AC4Abu][AEEA][AEEA][dQ]RP[NMeR][Cha]SHKG[Pip][Nle][Nip][Phe(4-Cl)]-OH [SEQ ID NO: 588],6.37,1.52
B4,4.15,0.624
B5,6.2,0.816
B6,3.37,0.885
B7,2.84,0.463
B8,1.01,0.44
Palmitoyl-[AC4Abu][AEEA][AEEA][dQ]RP[NMeR][Cha]SHKG[Pip′][Nle]P[β3hF]-OH [SEQ ID NO: 647],5.83,1.58
B9,11.1,2.47
Palmitoyl-[AC4Abu][AEEA][AEEA][dQ]RP[NPipG][Cha]SHKG[Pip′][Nle][Aib][Phe(4-Cl)]-OH [SEQ ID NO: 645],0.395,0.254
XXXQRPRLSHKGPXPF ({PDA}[AC4Abu][Aeea][Aeea]QRP[NMeArg]LSHKGP[Nle]P[4-Cl-F]{COOH}) [SEQ ID NO: 495],0.532,0.0829
XXXQRPRLSHKGPXPF ({pIFBu}[AC4Abu][Aeea][Aeea]QRP[NMeArg]LSHKGP[Nle]P[4-Cl-F]{COOH}) [SEQ ID NO: 118],0.171,0.0475
